# In the supplement of paper PMC7877785:
# ± gives the uncertainty stated by the source.
# Assay: self-splicing fitness, log relative to wild type (ln ratio); higher = more splicing; Tetrahymena group I intron in knt gene, E. coli kanamycin selection, DiMSum; sequences stand for … in CUCUCU…GGAGGGAAAAGUUAUCAGGCAUGCACCUGGUAGCUAGUCUUUAAACCAAUAGAUUGCAUCGGUUUAAAAGGCAAGACCGUCAAAUUGCGGGAAAGGGGUCAACAGCCGUUCAGUACCAAGUCUCAGGGGAAACUUUGAGAUGGCCUUGCAAAGGGUAUGGUAAUAAGCUGACGGACAUGGUCCUAACCACGCAGCCAAGUCCUAAGUCAACAGAUCUUCUGUUGAUAUGGAUGCAGUUCACAGACUAAAUGUCGGUCGGGGAAGAUGUAUUCUUCUCAUAAGAUAUAGUCGGACCUCUCCUUAAUGGGAGCUAGCGGAUGAAGUGAUGCAACACUGGAGCCGCUGGGAACUAAUUUGUAUGCGAAAGUAUAUUGAUUAGUUUUGGAGUACUCGUGGUCG
# How it was run: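 Six replicate transformations of E. coli BL21(DE3) with a pET-22b(+) library were grown overnight at 37°C or 30°C. The library randomised all eight P1ex-region intron nucleotides, the intron lying in the knt kanamycin-resistance gene, and plates were LB agar with or without 25 μg/mL kanamycin plus 100 μg/mL carbenicillin, 50 μM IPTG and 0.2% rhamnose. Pooled colonies were amplicon-sequenced on an Illumina HiSeq 2500, and fitness is the DiMSum error-weighted combination of wild-type-normalised replicate fold changes, kanamycin versus none.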
Sequence,self-splicing fitness (ln) (30 °C),self-splicing fitness (ln) (37 °C)
GCUAAGCAAUAUUACGGAGA,-3.1 ± 0.21,-2.49 ± 0.23
GCUAAGCAAUAUUACGGAUA,-2.45 ± 0.24,-0.375 ± 0.18
GCUAAGCAAUAUUACGGCAC,-1.31 ± 0.19,-0.55 ± 0.2
GCUAAGCAAUAUUACGGUAC,-1.47 ± 0.1,-1.65 ± 0.2
GCUAAGCAAUAUUACGGUGG,-3.83 ± 0.23,-1.82 ± 0.21
GCUAAGCAAUAUUACGUACC,-0.573 ± 0.11,0.246 ± 0.17
GCUCAGCAAUAUUACGACGU,0.0949 ± 0.072,0.267 ± 0.079
GCUCAGCAAUAUUACGAGGU,-1.06 ± 0.12,-2.08 ± 0.23
GCUCAGCAAUAUUACGCACU,0.181 ± 0.11,0.213 ± 0.14
GCUCAGCAAUAUUACGCCAG,-3.54 ± 0.26,-1.83 ± 0.3
GCUCAGCAAUAUUACGCCCG,–,-0.341 ± 0.44
GCUCAGCAAUAUUACGCGAG,-2.78 ± 0.13,-2.18 ± 0.17
GCUCAGCAAUAUUACGCGUG,-1.99 ± 0.07,-1.79 ± 0.089
GCUCAGCAAUAUUACGCUAA,-2.11 ± 0.11,-0.785 ± 0.11
GCUCAGCAAUAUUACGCUCG,-1.1 ± 0.11,-1.31 ± 0.18
GCUCAGCAAUAUUACGCUUC,-1.9 ± 0.077,-0.102 ± 0.081
GCUCAGCAAUAUUACGGCCU,-1.6 ± 0.14,-0.188 ± 0.16
GCUCAGCAAUAUUACGGGGC,-3.56 ± 0.2,-1.98 ± 0.2
GCUCAGCAAUAUUACGGUAA,-1.52 ± 0.13,-0.551 ± 0.11
GCUCAGCAAUAUUACGUGGU,-1.88 ± 0.13,-1.31 ± 0.17
GCUCAGCAAUAUUACGUUAC,-1.56 ± 0.12,-1.65 ± 0.14
GCUCAGCAAUAUUACGUUAU,-1.08 ± 0.12,-0.166 ± 0.12
GCUCAGCAAUAUUACGUUCG,-1.13 ± 0.065,-0.838 ± 0.074
GCUCAGCAAUAUUACGUUUG,-2.64 ± 0.13,-1.8 ± 0.15
GCUGAGCAAUAUUACGAACC,-1.08 ± 0.14,-0.236 ± 0.18

Sequence,self-splicing fitness (ln) (30 °C),self-splicing fitness (ln) (37 °C)
GCUGAGCAAUAUUACGAAUG,–,-1.4 ± 0.37
GCUGAGCAAUAUUACGACAC,-1.67 ± 0.14,-1.1 ± 0.18
GCUGAGCAAUAUUACGACGA,–,-0.876 ± 0.39
GCUGAGCAAUAUUACGCGGG,-2.93 ± 0.14,-1.19 ± 0.14
GCUGAGCAAUAUUACGCUGU,–,-2.51 ± 0.49
GCUGAGCAAUAUUACGGAUU,-2.33 ± 0.1,-1.26 ± 0.11
GCUGAGCAAUAUUACGGCAC,-0.439 ± 0.24,-1.28 ± 0.39
GCUGAGCAAUAUUACGGCGG,-1.79 ± 0.22,–
GCUGAGCAAUAUUACGGCUC,–,-1.71 ± 0.25
GCUGAGCAAUAUUACGGGAG,-2.58 ± 0.35,-2.15 ± 0.3
GCUGAGCAAUAUUACGGUAC,-2.15 ± 0.22,-2.77 ± 0.29
GCUGAGCAAUAUUACGGUUU,-1.86 ± 0.075,-1.25 ± 0.095
GCUGAGCAAUAUUACGUCCA,-1.97 ± 0.27,-2.32 ± 0.37
GCUGAGCAAUAUUACGUCUG,-2.08 ± 0.14,-0.981 ± 0.14
GCUGAGCAAUAUUACGUGAU,-1.02 ± 0.1,-1.13 ± 0.14
GCUGAGCAAUAUUACGUGGU,-3.63 ± 0.32,-2.22 ± 0.4
GCUGAGCAAUAUUACGUUCG,-2.34 ± 0.12,-1.17 ± 0.12
GCUGAGCAAUAUUACGUUUG,-2.85 ± 0.17,-2.76 ± 0.25
GCUUAGCAAUAUUACGACCA,-1.45 ± 0.2,-1.29 ± 0.38
GCUUAGCAAUAUUACGACGU,-0.576 ± 0.13,0.408 ± 0.16
GCUUAGCAAUAUUACGACUA,-1.34 ± 0.22,-0.593 ± 0.2
GCUUAGCAAUAUUACGAGGA,-0.769 ± 0.11,-0.781 ± 0.1
GCUUAGCAAUAUUACGAUAU,-1.67 ± 0.18,-0.39 ± 0.17
GCUUAGCAAUAUUACGAUUA,-1.01 ± 0.11,-1.03 ± 0.1
